Assay results reported in patent publication US20100297606A1.

Molecular target: humanized anti-human IL-6 receptor monoclonal IgG antibody MRA (tocilizumab), untreated
Experiment: dot blot of untreated MRA on nitrocellulose (1.5 to 100 ng per spot), biotinylated peptide with HRP-conjugated streptavidin

detection limit: 6 ng/spot
Substance: Fc-III peptide
